Data reported in US20260159579A1 (Pfizer, published 2026).
Where “and” joins values, the source holds several entries; their conditions need not be identical. Identical values can stand only once.

T1: Mouse Fc-human GDF15 (Mu IgG1Fc_Fxa_Hu GDF15) (human)
T1 construct: Whole entry is the fusion: mouse IgG1 Fc, FXa site and linker, mature human GDF15; described as dimeric; also called Murine dimeric IgG1 Fc-human GDF-15 with FXa cleavage site; control human GDF15
T1 chain: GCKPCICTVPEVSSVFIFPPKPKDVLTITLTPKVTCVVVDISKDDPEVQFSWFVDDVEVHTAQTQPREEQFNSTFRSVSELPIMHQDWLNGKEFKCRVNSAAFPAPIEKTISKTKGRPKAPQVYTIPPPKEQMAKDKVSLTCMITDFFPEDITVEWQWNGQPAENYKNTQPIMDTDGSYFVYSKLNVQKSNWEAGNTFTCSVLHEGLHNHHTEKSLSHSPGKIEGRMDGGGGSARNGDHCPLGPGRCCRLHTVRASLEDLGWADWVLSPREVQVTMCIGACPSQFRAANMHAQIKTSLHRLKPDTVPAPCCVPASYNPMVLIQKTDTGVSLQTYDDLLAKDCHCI


Columns and labels:
[1] = target: T1, Mouse Fc-human GDF15 (Mu IgG1Fc_Fxa_Hu …); test: SPR BIAcore T200, 37C; Fc-GDF15 captured, IgG as analyte
Procedure: (§1) Mouse Fc-human GDF15 (Mu IgG1Fc_Fxa_Hu GDF15; SEQ ID NO:2), Mouse Fc-mouse GDF15 (Mu IgG1Fc_Fxa_Mu GDF15; SEQ ID NO:5) and Mouse Fc-cynomolgus monkey GDF15 (Mu IgG1Fc_Fxa_Cyno GDF15; SEQ ID NO:4) were captured onto three different flow cells of a CM4 sensorchip (catalogue number BR100534, GE Healthcare) surface using the Mouse Antibody Capture Kit (BR100838, GE Healthcare) according to the manufacturer's protocol. The running and sample bufferwas 10 mM HEPES pH 7.4, 0.15M NaCl, 3 mM EDTA, 0.05% P-20 (HBS-EP+). The final capture levels of Mu IgG1Fc_Fxa_Hu GDF15, Mu IgG1Fc_Fxa_Mu GDF15 and Mu IgG1Fc_Fxa_Cyno GDF15 were 40 resonance units (RU), 32 RU and 25 RU respectively. Flow cell 1 was used as a reference flow cell. […] The dissociation was monitored for 2.8 hours and the surface was regenerated with 10 mM Glycine pH 1.7. Binding affinities and rate constants were determined for murine and cynomolgus monkey GDF15 by fitting the resulting sensorgram data to a 1:1 Langmuir model in BIAcore T200 Evaluation software version 2.0 (GE Healthcare).
(§2) Additionally, the binding of clone GDF15_001 to cynomolgus monkey and mouse GDF15 was measured using above mentioned BIAcore assay (Table 7).

[2] = target: T1, Mouse Fc-human GDF15 (Mu IgG1Fc_Fxa_Hu …); test: SPR BIAcore T200, 37C; Fc-GDF15 captured, IgG as analyte; average of runs
Procedure: as §1, §2

[3] = target: T1, Mouse Fc-human GDF15 (Mu IgG1Fc_Fxa_Hu …); test: SPR BIAcore T200; summary sentence for the clones of Table 6
Procedure: as §1, §2

Binder | Kd [1] | T½ min [1] | koff [1] | kon [1] | Kd [2] [nM] | koff [2] [s⁻¹] | kon [2] [M⁻¹ s⁻¹] | Kd [3] [nM]
GDF15_0297 (antibody, mouse IgG1, kappa, V domains shown, Tested in bivalent format; also called GDF15_297) VH: QVQLQQPGAELVKPGASVKMSCKASGYPFEGWYIHWVKQRPGQGLEWMGWNNPRTGLTNHAQKFQGKVTMTRDTSSSTAYMQLSSLTSEDSAVYYCARGVGADAAFDIWGQGTTLTVSS VL: DIVMTQSPSSLSVSAGEKVTMSCRSSQSLLWKHGYNYLDWYQQKPGQPPKLLIYLDRNRAHGVPDRFTGSGSGTDFTLTISSVQAEDLAVYYCMQSFETPITFGGGTKLEIKR | < 0.01 nM | 17.7 h and 14.9 h | 1.09e-05 s⁻¹ and 1.29e-05 s⁻¹ | 5.54e+06 M⁻¹ s⁻¹ and 5.5e+06 M⁻¹ s⁻¹ | < 0.01 | 1.19e-05 | 5.52e+06 | < 0.15
GDF15_014 (antibody, human IgG1, kappa, V domains shown, Tested in bivalent format) VH: QVQLVQSGAEVKKPGSSVKVSCKASGYTFSSYNIDWVRQAPGQGLEWMGQINPINGLAFYNQKFQGRVTITADESTSTAYMELSSLRSEDTAVYYCAREAITTVGAMDYWGQGTLVTVSS VL: EIVLTQSPATLSLSPGERATLSCRTSQNVHNYLAWYQQKPGQAPRLLIYDASNRATGIPARFSGSGSGTDFTLTISSLEPEDFAVYYCQQFWSDPYTFGQGTKVEIKR | < 0.01 nM | 10.7 h and 13 h | 1.79e-05 s⁻¹ and 1.48e-05 s⁻¹ | 1.88e+06 M⁻¹ s⁻¹ and 1.9e+06 M⁻¹ s⁻¹ | < 0.01 | 1.64e-05 | 1.89e+06 | 
GDF15_010 (antibody, human IgG1, kappa, V domains shown, Tested in bivalent format) VH: QVQLVQSGAEVKKPGSSVKVSCKASGYTFSDYNIDWVRQAPGQGLEWMGGINPNNGLAFFNQKFQGRVTITADESTSTAYMELSSLRSEDTAVYYCAREAITTVGAMDYWGQGTLVTVSS VL: EIVLTQSPATLSLSPGERATLSCRTSQSLHSYLAWYQQKPGQAPRLLIYDASNRATGIPARFSGSGSGTDFTLTISSLEPEDFAVYYCQQFWNDPWTFGQGTKVEIKR | 0.0113 nM and 0.0201 nM | 13.1 h and 10.8 h | 1.47e-05 s⁻¹ and 1.78e-05 s⁻¹ | 1.31e+06 M⁻¹ s⁻¹ and 885000 M⁻¹ s⁻¹ | 0.0157 | 1.63e-05 | 1.1e+06 | 
GDF15_003 (antibody, human IgG1, kappa, V domains shown, Tested in bivalent format) VH: QVQLVQSGAEVKKPGSSVKVSCKASGYTFTSYNIDWVRQAPGQGLEWMGQINPNNGLAFYNQKFQGRVTITADESTSTAYMELSSLRSEDTAVYYCAREQITTVGAMDYWGQGTLVTVSS VL: EIVLTQSPATLSLSPGERATLSCRASQSLSSYLAWYQQKPGQAPRLLIYDAKNRADGIPARFSGSGSGTDFTLTISSLEPEDFAVYYCQQFSSDPYTFGQGTKVEIKR | 0.0274 nM and 0.0268 nM | 2.67 h and 2.1 h | 7.22e-05 s⁻¹ and 9.19e-05 s⁻¹ | 2.64e+06 M⁻¹ s⁻¹ and 3.43e+06 M⁻¹ s⁻¹ | 0.0271 | 8.2e-05 | 3.03e+06 | 
GDF15_004 (antibody, human IgG1, kappa, V domains shown, Tested in bivalent format) VH: QVQLVQSGAEVKKPGSSVKVSCKASGYTFSSYNIDWVRQAPGQGLEWMGQINPNNGLANYAQKFQGRVTITADESTSTAYMELSSLRSEDTAVYYCAREAITTIGAMDYWGQGTLVTVSS VL: EIVLTQSPATLSLSPGERATLSCRTSESVHSYLAWYQQKPGQAPRLLIYDASTRADGIPARFSGSGSGTDFTLTISSLEPEDFAVYYCQQFWSDPYTFGQGTKVEIKR | 0.0322 nM and 0.0419 nM | 2.7 h and 2.35 h | 7.14e-05 s⁻¹ and 8.2e-05 s⁻¹ | 2.22e+06 M⁻¹ s⁻¹ and 1.96e+06 M⁻¹ s⁻¹ | 0.037 | 7.67e-05 | 2.09e+06 | 

Continued, values first:

Kd [1] | T½ min [1] | koff [1] | kon [1] | Kd [2] [nM] | koff [2] [s⁻¹] | kon [2] [M⁻¹ s⁻¹] | Kd [3] [nM] | Binder
< 0.01 nM |  |  | 3.36e+06 M⁻¹ s⁻¹ and 5.58e+06 M⁻¹ s⁻¹ and 5.22e+06 M⁻¹ s⁻¹ | < 0.01 | 6.97e-06 | 4.72e+06 | < 0.15 | GDF15_0301 (antibody, mouse IgG1, kappa, V domains shown, Tested in bivalent format; also called GDF15_301; mAB2) VH: QVQLQQPGAELVKPGASVKMSCKASGYPFEGWYIHWVKQRPGQGLEWMGWNNPRTGLTNHAQKFQGKATLTVDTSSSTAYMQLSSLTSEDSAVYYCARGVGADAAFDIWGQGTTLTVSS VL: DIVLTQSPSSLSVSAGEKVTMSCRSSQSLLWKHGYNYLDWYQQKPGQPPKLLIYLDRNRAHGVPDRFTGSGSGTDFTLTISSVQAEDLAVYYCMQSFETPITFGGGTKLEIKR
< 0.01 nM | 3.7 h and 4.47 h | 5.21e-05 s⁻¹ and 4.3e-05 s⁻¹ | 1.2e+07 M⁻¹ s⁻¹ and 1.3e+07 M⁻¹ s⁻¹ | < 0.01 | 4.76e-05 | 1.25e+07 | < 0.15 | GDF15_0470 (antibody, human IgG1, kappa, V domains shown, Tested in bivalent format; also called GDF15-470) VH: QVQLVQSGAEVKKPGASVKVSCKASGYPFEGWYIHWVRQAPGQGLEWMGWNNPRTGLTNHAQKFQGRVTMTRDTSISTAYMELSRLRSDDTAVYYCARGVGADAAFDIWGQGTMVTVSS VL: EIVLTQSPATLSLSPGERATLSCRSSQSLLWKHGYNYLDWYQQKPGQAPRLLIYLDRNRAHGIPARFSGSGSGTDFTLTISSLEPEDFAVYYCMQSFETPITFGQGTKVEIKR
0.0267 nM and 0.043 nM | 2.35 h and 2.22 h | 8.18e-05 s⁻¹ and 8.66e-05 s⁻¹ | 1.9e+06 M⁻¹ s⁻¹ and 3.24e+06 M⁻¹ s⁻¹ | 0.0349 | 8.42e-05 | 2.57e+06 |  | GDF15_017 (antibody, human IgG1, kappa, V domains shown, Tested in bivalent format) VH: QVQLVQSGAEVKKPGSSVKVSCKASGYTFTDYNIDWVRQAPGQGLEWMGQINPNNGLAFYNQKFQGRVTITADESTSTAYMELSSLRSEDNAVYYCAREAITTVGAMDYWGQGTLVTVSS VL: EIVLTQSPATLSLSPGERATLSCRTSQSVHSYLAWYQQKPGQAPRLLIYDAKTRATGIPARFSGSGSGTDFTLTISSLEPEDFAVYYCQQFSSDPYTFGQGTKVEIKR
0.0132 nM and 0.0179 nM | 10.9 h and 13.3 h | 1.77e-05 s⁻¹ and 1.45e-05 s⁻¹ | 1.34e+06 M⁻¹ s⁻¹ and 813000 M⁻¹ s⁻¹ | 0.0156 | 1.61e-05 | 1.08e+06 | < 0.15 | GDF15_022 (antibody, human IgG1, kappa, V domains shown, Tested in bivalent format) VH: QVQLVQSGAEVKKPGSSVKVSCKASGYTFSDYNIDWVRQAPGQGLEWMGQINPNNGLIFFNQKFQGRVTITADESTSTAYMELSSLRSEDTAVYYCAREVITTVGAMDYWGQGTLVTVSS VL: EIVLTQSPATLSLSPGERATLSCRTSQSVHSYLAWYQQKPGQAPRLLIYDAKTRADGIPARFSGSGSGTDFTLTISSLEPEDFAVYYCQQFSSDPYTFGQGTKVEIKR
0.0974 nM and 0.165 nM | 2.03 h and 1.7 h | 9.46e-05 s⁻¹ and 0.000113 s⁻¹ | 972000 M⁻¹ s⁻¹ and 686000 M⁻¹ s⁻¹ | 0.131 | 0.000104 | 829000 | < 0.15 | GDF15_020 (antibody, human IgG1, kappa, V domains shown, Tested in bivalent format) VH: QVQLVQSGAEVKKPGSSVKVSCKASGYTFSDYNMDWVRQAPGQGLEWMGQINPNNGLANYNQKFQGRVTITADESTSTAYMELSSLRSEDTAVYYCAREAITTVGAMDYWGQGTLVTVSS VL: EIVLTQSPATLSLSPGERATLSCRASQNLHSYLAWYQQKPGQAPRLLIYDASTRADGIPARFSGSGSGTDFTLTISSLEPEDFAVYYCQQFWSDPYTFGQGTKVEIKR
0.142 nM and 0.165 nM | 0.661 h and 0.547 h | 0.000291 s⁻¹ and 0.000352 s⁻¹ | 2.05e+06 M⁻¹ s⁻¹ and 2.14e+06 M⁻¹ s⁻¹ | 0.153 | 0.000322 | 2.09e+06 | < 0.15 | GDF15_021 (antibody, human IgG1, kappa, V domains shown, Tested in bivalent format) VH: QVQLVQSGAEVKKPGSSVKVSCKASGYTFSSYNIDWVRQAPGQGLEWMGGINPINGLIFFNQKFQGRVTITADESTSTAYMELSSLRSEDTAVYYCAREAITTVGAMDHWGQGTLVTVSS VL: EIVLTQSPATLSLSPGERATLSCRTSENVHSYLAWYQQKPGQAPRLLIYDASNLADGIPARFSGSGSGTDFTLTISSLEPEDFAVYYCQQFWSDPYTFGQGTKVEIKR
0.0275 nM and 0.0103 nM | 2.89 h and 2.56 h | 6.66e-05 s⁻¹ and 7.51e-05 s⁻¹ |  | 0.018 | 7.08e-05 | 4.86e+06 |  | GDF15_013 (antibody, human IgG1, kappa, V domains shown, Tested in bivalent format) VH: QVQLVQSGAEVKKPGSSVKVSCKASGYTFSDYNMDWVRQAPGQGLEWMGGINPNNGLAFYNQKFQGRVTITADESTSTAYMELSSLRSEDTAVYYCAREAITTVGAMDYWGQGTLVTVSS VL: EIVLTQSPATLSLSPGERATLSCRTSESVHSYLAWYQQKPGQAPRLLIYDASNRATGIPARFSGSGSGTDFTLTISSLEPEDFAVYYCQQFWNWPWTFGQGTKVEIKR
0.0594 nM and 0.0573 nM | 1.94 h and 1.86 h | 9.93e-05 s⁻¹ and 0.000104 s⁻¹ | 1.67e+06 M⁻¹ s⁻¹ and 1.81e+06 M⁻¹ s⁻¹ | 0.0584 | 0.000101 | 1.74e+06 |  | GDF15_015 (antibody, human IgG1, kappa, V domains shown, Tested in bivalent format) VH: QVQLVQSGAEVKKPGSSVKVSCKASGYTFSDYNMDWVRQAPGQGLEWMGQINPNNGLAFYNQKFQGRVTITADESTSTAYMELSSLRSEDTAVYYCAREAITTVGATDYWGQGTLVTVSS VL: EIVLTQSPATLSLSPGERATLSCRTSQNVHSYLAWYQQKPGQAPRLLIYDASNLADGIPARFSGSGSGTDFTLTISSLEPEDFAVYYCQQFSNDPWTFGQGTKVEIKR
